Entries after “also recorded” stand apart in the source; their conditions may differ.
T1: PTP1B (reduced, active) (Homo sapiens, UniProt P18031)
T1 construct: made in house; host or cells: E. coli BL21 (pET19b)
T1 sequence (P18031 3-277 limits assumed): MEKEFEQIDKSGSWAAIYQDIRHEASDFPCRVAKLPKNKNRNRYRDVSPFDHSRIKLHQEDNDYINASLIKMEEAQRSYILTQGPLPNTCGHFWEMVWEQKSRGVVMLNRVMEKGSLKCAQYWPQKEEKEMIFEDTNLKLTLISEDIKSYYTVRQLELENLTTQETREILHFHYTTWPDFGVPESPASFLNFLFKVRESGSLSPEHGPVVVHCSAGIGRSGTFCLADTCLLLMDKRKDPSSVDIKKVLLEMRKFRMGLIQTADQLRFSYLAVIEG

T2: endogenous PTP1B-OX (Homo sapiens, UniProt P18031)
T2 construct: endogenous in cells; host or cells: 293T cells (transfected only with the scFv intrabody)
T2 sequence (P18031 1-435): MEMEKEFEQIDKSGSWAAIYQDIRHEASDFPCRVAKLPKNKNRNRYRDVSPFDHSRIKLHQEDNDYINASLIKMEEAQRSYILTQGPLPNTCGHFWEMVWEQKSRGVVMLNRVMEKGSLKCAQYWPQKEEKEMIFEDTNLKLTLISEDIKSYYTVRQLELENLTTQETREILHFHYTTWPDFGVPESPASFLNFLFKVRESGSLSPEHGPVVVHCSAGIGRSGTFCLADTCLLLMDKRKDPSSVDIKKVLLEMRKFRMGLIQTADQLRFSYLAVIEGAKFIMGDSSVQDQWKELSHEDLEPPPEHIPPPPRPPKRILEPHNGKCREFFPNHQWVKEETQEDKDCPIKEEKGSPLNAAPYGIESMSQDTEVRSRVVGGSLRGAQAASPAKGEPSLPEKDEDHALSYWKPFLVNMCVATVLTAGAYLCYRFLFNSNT

T3: endogenous PTP1B under reducing conditions (Homo sapiens, UniProt P18031)
T3 construct: endogenous in cells; host or cells: 293T cells (transfected only with the scFv intrabody)
T3 sequence (P18031 1-435): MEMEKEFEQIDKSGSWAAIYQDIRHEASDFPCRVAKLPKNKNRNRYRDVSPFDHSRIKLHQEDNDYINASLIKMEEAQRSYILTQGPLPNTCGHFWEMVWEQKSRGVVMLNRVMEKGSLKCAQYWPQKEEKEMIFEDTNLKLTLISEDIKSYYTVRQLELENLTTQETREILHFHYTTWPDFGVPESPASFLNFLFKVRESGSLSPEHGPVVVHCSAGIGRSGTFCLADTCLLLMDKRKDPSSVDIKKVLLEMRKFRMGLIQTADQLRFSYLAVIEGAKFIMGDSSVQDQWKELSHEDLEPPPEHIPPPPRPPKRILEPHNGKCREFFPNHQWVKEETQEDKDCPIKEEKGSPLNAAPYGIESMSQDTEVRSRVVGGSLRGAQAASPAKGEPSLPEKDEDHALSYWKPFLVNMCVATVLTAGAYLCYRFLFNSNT


How the values were obtained:
PTP1B (reduced, active) = target: T1, PTP1B (reduced, active); test: Direct effect of scFvs/antibodies on PTP1B phosphatase activity (32P-pTyr-RCML substrate); assay type: biochemical; conditions: 32P-labeled pTyr-RCML substrate, FIG. 1
Method: Applicant's hypothesis was that scFvs that are able to bind to and stabilize the oxidized conformation of PTP1B in solution would inhibit reactivation by reducing agent, but have no direct inhibitory effect on phosphatase activity in assays in vitro. Activity was measured using ^32P-labeled pTyr-Reduced Carboxamidomethylated and Maleylated Lysozyme as substrate. Applicant established conditions in which wild type PTP1B could be reversibly oxidized in vitro. PTP1B was inactivated following addition of H2O2. […] Applicant validated this approach further, by testing the effects of expressing one of the scFvs (scFv45) as a single chain antibody fragment “intrabody” to PTP1B, using 293T cells as the expression system. This intrabody was expressed transiently and then tested for effects on insulin signaling, focusing initially on the tyrosine phosphorylation status of the beta-subunit of the insulin receptor and insulin receptor substrate (IRS-1).
Reduced carboxamidomethylated and maleylated lysozyme (RCML) was labeled with ^32P using recombinant GST-FER kinase to stoichiometries up to 0.8 (mol ^32P incorporated/mol of protein). This ^32P-Labeled phospho-tyrosyl RCML was used as the substrate in the in-solution phosphatase assay for screening the conformation sensor scFvs. Recombinant PTP1B was reversibly oxidized and transiently inactivated with H2O2 (5× molar excess of the protein). […] Purified bacterially expressed scFvs (100× molar excess of PTP1B) were incubated with PTP after H2O2 treatment and its removal and the effect of individual scFv on stabilizing the reversibly oxidized conformation was assessed by the phosphatase assay under reducing condition.
In order to screen the isolated scFvs for those that inhibit reactivation of PTP1B-OX by reducing agent, but have no direct inhibitory effect on phosphatase activity in assays in vitro, the effect of six scFvs (scFv20, scFv34, scFv45, scFv57, scFv64 and scFv106) on PTP1B activity was determined. PTP1B activity was measured using 32P-labeled pTyr-Reduced Carboxamidomethylated and Maleylated Lysozyme as substrate (FIGS. 1 and 2). Addition of the reducing agent TCEP alone had no substantial effect in PTP1B activity was assessed.

endogenous PTP1B-OX = target: T2, endogenous PTP1B-OX; test: Intrabody interaction in 293T cells treated with H2O2 (Ni-NTA pull down / anti-PTP1B immunoprecipitation); assay type: cell-based; conditions: 1 mM H2O2 5 minutes, FIGS. 11, 12
Method: (§1) One of the positive candidate scFvs (scFv45) was cloned in pcDNA3.2/V5-GW/D-TOPO expression vector and transiently expressed in mammalian cells as stable intracellular antibody (aka intrabody) (FIG. 10). To detect PTP1B-OX and scFv45 interaction in mammalian cells, scFv45 was overexpressed in 293T cells as described herein (See Example 4) and 48 hours post transfection the cells were serum-starved for 16 hours in growth medium (DMEM, low glucose) without serum (FBS), then incubated with 1 mM H2O2 (in growth medium without serum) for 5 minutes at 37° C. or treated with 20 mM NAC (in growth medium without serum) for 1 hour at 37° C. Cells treated with H2O2 were washed twice with cold (4° C.) PBS and lysed in lysis buffer (25 mM HEPES, pH 7.4, 150 mM NaCl, 0.25% Deoxychloate, 1% TritonX-100, 25 mM NaF, 10 mM MgCl2, 1 mM EDTA, 10% Glycerol, 0.5 mM PMSF, 10 mM Benzamidine, protease inhibitor cocktail). Cells treated with NAC were lysed with lysis buffer containing 2 mM TCEP to ensure a post-lysis reducing environment. Interaction between PTP1B and intrabody45 were tested by pulling down the protein complex from 1 mg of total cell lysate with Ni-NTA agarose or by immunoprecipitating PTP with anti-PTP1B (FG6). For the pull down experiment, Ni-NTA agarose beads were incubated with the lysates (both oxidized and reduced) at 4° C. Protein complex bound to the Ni-NTA agarose beads was pulled down and washed three times; first with lysis buffer containing 20 mM imidazole followed by two more washes with wash buffer (PBS, pH 7.4, 20 mM imidazole, 0.05% BSA, 0.05% Tween-20 and protease inhibitors). Applicant used 20 mM imidazole in the wash buffer to reduce the non-specific binding of proteins with the Ni-NTA agarose beads. The complex was eluted with wash buffer containing 500 mM imidazole with gentle shaking at 4° C. and the eluate was mixed with SDS sample buffer with DTT. For the immunoprecipitation experiments, 1 mg of total cell lystates (both oxidized and reduced) was incubated with anti-PTP1B antibody (FG6) at 4° C. The interacting protein complex was immunoprecipitated after incubating the lysate-antibody mixture with protein A/G Sepharose at 4° C. After immunoprecipitation, Sepharose beads were washed three times; first with lysis buffer followed by two more washes with wash buffer (PBS, pH 7.4, 0.05% BSA, 0.05% Tween-20 and protease inhibitors). The Sepharose beads were then heated at 90° C. in 2×SDS sample buffer with DTT. Proteins from the pulled down or immunoprecipitated complex were separated by SDS-PAGE. PTP was detected with anti-PTP1B antibody (FG6) and the intrabodies were detected with anti-HA (3F10)-HRP antibody [anti-HA (3F10)-HRP, Roche] by immunoblotting.
In the initial in vitro phosphatase screening assay using reversibly oxidized (with H2O2) recombinant PTP1B, Applicant found four different PTP1B-OX specific scFvs (scFv45, scFv57, scFv64 and scFv106) from the initial pool of 12 different scFvs. […] Applicant has also shown that scFv45, expressed as an intrabody in mammalian cells, can bind to endogenous PTP1B-OX but not endogenous PTP under reducing conditions. Further assessment was carried out to identify additional PTP1B-OX-specific intrabodies. Additional scFvs have been subcloned in pcDNA3.2/V5-GW/D-TOPO mammalian expression vector (FIG. 10) from their respective phagemid constructs. After transient overexpression of these scFvs as intrabodies in 293T cells, the interaction between endogenous PTP1B and these intrabodies in both H2O2-treated cells and cells was observed under reducing condition (treated with NAC and lysed with lysis buffer containing TCEP). […] All can be used in the methods and compositions described herein. Additional scFvs, such as some or all of the 137 selected individual scFvs from the library, can be similarly tested by in vitro screening and/or by binding assay in mammalian cells.

[1] = target: T3, endogenous PTP1B under reducing conditions; test: Intrabody interaction in 293T cells under reducing condition (NAC, TCEP) (Ni-NTA pull down / immunoprecipitation); assay type: cell-based; conditions: 20 mM NAC, lysis buffer with 2 mM TCEP, FIGS. 11, 12
Method: as §1
In the initial in vitro phosphatase screening assay using reversibly oxidized (with H2O2) recombinant PTP1B, Applicant found four different PTP1B-OX specific scFvs (scFv45, scFv57, scFv64 and scFv106) from the initial pool of 12 different scFvs. […] Applicant has also shown that scFv45, expressed as an intrabody in mammalian cells, can bind to endogenous PTP1B-OX but not endogenous PTP under reducing conditions. Further assessment was carried out to identify additional PTP1B-OX-specific intrabodies. Additional scFvs have been subcloned in pcDNA3.2/V5-GW/D-TOPO mammalian expression vector (FIG. 10) from their respective phagemid constructs. […]

Row | Molecule | direct effect on PTP1B activity (PTP1B (reduced, active)) | binding of intrabody to endogenous PTP1B-OX (endogenous PTP1B-OX) | binding of intrabody to endogenous PTP1B under reducing conditions [1]
1 | scFv34: scFv, SEQ ID NO: 67 and 163 (protein) scFv: MKKTAIAIAVALAGFATVAQAALTQPSSVSANPGGTVEITCSGSSGSHGWYQQKSPGSAPVTVIYDNTNRPSDIPSRFSGSLSGSTATLTITGVQAEDEAVYYCGSFDTNSDSGYVGIFGARTTLTVLGQSSRSSTETLDDSGGGLQTPGGALSLVCNASGFTFISYDMFWVRQAPGKGLEFVTQINSAGSYTNYGSAVNGRATISRNDGQITVRLQLNDLTADDTGIYFCAESASGYDYSGSDAGDINAWGHGTEVVVSSTSGQAGQHHHHHHGAYPYDVPDYAS | no direct inhibition of PTP activity | bound weakly to PTP1B-OX | 
2 | scFv102: scFv, SEQ ID NO: 130 and 162 (protein) scFv: MKKTAIAIAVALAGFATVAQAALTQPSSVSANPGETVKITCSGGSGSYGWYQQESPGSAPVTVIYYNDKRPSDIPSRFSGSASGSTATLTIAGVRAEDEAVYFCGSWDSSTSAGIFGAGTALTVLGQSSRSSAVTLDESGGGLQTPGGGLSLVCKASGFSSSHGMGWMRQAPGKGLEFVAGIRSDGSSTAYGAAVDGRATITRDDGQSTVTLQLNNLRAEDTATYFCAKTNSYNSAGIIDAWGHGTEVIVSSTSGQAGQHHHHHHGAYPYDVPDYAS |  | bound to endogenous PTP1B-OX strongly; also recorded: co-pulldown of PTP1B-OX in the presence of H2O2 | not in the presence of NAC and TCEP

Source: patent publication US9074002B2, “PTP1B inhibitors” (Cold Spring Harbor Laboratory, priority 2009, dated 2015)
